Substitutions are numbered along the chain they refer to. Where two headings read alike, the source gives them in different places. PLA = 3-phenyllactic acid (2-hydroxy-3-phenylpropanoic acid)
B1: Glucagon (6-CEX) analog E9, K12, E16 (peptide)
peptide: FTSEYSKYLDERRAQDFVQWLMNTGPSSGAPPPS
B2: Glucagon (6-CEX) analog E9, K12E16 (lactam) (peptide)
peptide: B1 peptide
modifications: lactam between K12 and E16 (glucagon numbering)
B3: Glucagon (6-CEX) analog E9, E16K20 (lactam) (peptide)
peptide: B1 peptide with Q15K
modifications: lactam between E16 and K20 (glucagon numbering)
B4: Glucagon (6-CEX) analog D9, K12E16 (Lactam) (peptide)
peptide: B1 peptide with E4D
modifications: lactam between K12 and E16 (glucagon numbering)
B5: [PLA6, E9, K12E16 (Lactam)] glucagon (6-CEX) analog (peptide)
peptide: TSEYSKYLDERRAQDFVQWLMNTGPSSGAPPPS
modifications: PLA at position 6, N-terminal to the letters given; lactam between K12 and E16 (glucagon numbering)
B6: [PLA6, E9]Glucagon (aa6-29 + CEX)-NH2 (peptide)
peptide: {PLA}-TSEYSKYLDSRRAQDFVQWLMNTGPSSGAPPPS-NH2

What was measured:
glucagon receptor [1] = target: glucagon receptor (UniProt P47871); experiment: cell-based or functional assay
Sequence of glucagon receptor (P47871 26-477 limits assumed): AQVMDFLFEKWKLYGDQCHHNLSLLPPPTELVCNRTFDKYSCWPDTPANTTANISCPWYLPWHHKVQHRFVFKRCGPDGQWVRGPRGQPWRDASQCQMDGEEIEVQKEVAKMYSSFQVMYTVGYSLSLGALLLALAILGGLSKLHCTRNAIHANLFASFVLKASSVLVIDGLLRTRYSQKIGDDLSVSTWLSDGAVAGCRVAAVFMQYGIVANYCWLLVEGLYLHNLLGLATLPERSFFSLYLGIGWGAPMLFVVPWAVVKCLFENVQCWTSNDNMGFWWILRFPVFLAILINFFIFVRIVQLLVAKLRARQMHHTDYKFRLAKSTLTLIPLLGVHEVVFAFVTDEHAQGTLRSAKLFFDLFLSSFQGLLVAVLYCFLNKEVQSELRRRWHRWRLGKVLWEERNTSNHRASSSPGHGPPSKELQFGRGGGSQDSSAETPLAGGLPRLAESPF

glucagon receptor [2] = target: glucagon receptor (UniProt P47871); experiment: cell-based or functional assay; remark: listed apart in the source
GLP-1 receptor [3] = target: GLP-1 receptor (UniProt P43220); experiment: cell-based or functional assay
Sequence of GLP-1 receptor (P43220 24-463 limits assumed): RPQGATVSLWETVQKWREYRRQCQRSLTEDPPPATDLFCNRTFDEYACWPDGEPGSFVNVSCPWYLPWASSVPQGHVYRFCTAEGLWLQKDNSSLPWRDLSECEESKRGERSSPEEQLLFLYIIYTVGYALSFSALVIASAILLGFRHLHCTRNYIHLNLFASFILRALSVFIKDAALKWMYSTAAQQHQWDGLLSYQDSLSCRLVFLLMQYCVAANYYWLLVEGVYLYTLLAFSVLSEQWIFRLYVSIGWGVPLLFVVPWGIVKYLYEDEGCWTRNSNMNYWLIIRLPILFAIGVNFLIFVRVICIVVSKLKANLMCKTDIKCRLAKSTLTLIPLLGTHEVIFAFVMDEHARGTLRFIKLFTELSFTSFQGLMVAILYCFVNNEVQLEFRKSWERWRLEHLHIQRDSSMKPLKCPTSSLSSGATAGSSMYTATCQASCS

GLP-1 receptor [4] = target: GLP-1 receptor (UniProt P43220); experiment: cell-based or functional assay; remark: listed apart in the source
[5] = target: glucagon receptor, P47871; experiment: cell-based or functional assay
Sequence of glucagon receptor, P47871 (P47871 26-477 limits assumed): as the sequence (P47871 26-477 limits assumed) above

[6] = target: glucagon receptor, P47871; experiment: receptor binding, method not described

Binder	Glu IC50 (glucagon receptor [1])	Glucagon IC50 (glucagon receptor [2])	GLP-1 (EC50) (GLP-1 receptor [3])	GLP-1 (EC50) (GLP-1 receptor [4])	IC50(nM) (cAMP, inhibit Glucagon) 0.1 nM or 0.2 nM [5]	IC50 [6]
B1	762 nM	762 nM				
B2	2010 nM	2010 nM	63 nM			
B3	42 nM	42 nM	36 nM			
B4	828 nM	828 nM	119 nM	18 nM		
B5	72 nM	72 nM	6 nM			
B6					24.8 nM	40.3 nM

Source: patent US20120322725A1
